Measurements reported in PMC9817077, “Simple, Reliable Protocol for High-Yield Solubilization of Seedless Amyloid-β Monomer” (ACS Chemical Neuroscience, 2022).

Experiments:
[1] = Removal of HMW material by ultracentrifugation, AF4-MALS and ThT; assay type: physicochemical; settings: for integrated HMW UV signal after cross-flow, equivalent mass of Aβ(1-42): 200 µl injected
Method: 4 S3 Removal of HMW material from 50 mM NaOH Aβ
5 preparations by ultracentrifugation
8 that attempts to remove any putative seed or oligomers had no impact on the self-assembly 9 kinetics. To complement this, and further explore the nature of the HMW contaminant that 10 eluted after cross-ﬂow in AF4 runs, we removed the HMW material by ultracentrifugation 11 and examined the eﬀect on the self-assembly kinetics. Firstly, an Aβ(1-42) sample was re-12 solubilized to a concentration of 1 mg/ml peptide by sonication for 5 min in 50 mM NaOH.
14 NaOH, centrifuged at 436,000g for 1 h, and examined by AF4-MALS and ThT assays. The 15 dilution was carried out to obtain a suﬃciently large volume for ultracentrifugation. As a 16 control, another aliquot from the same re-solubilized sample was diluted in the same manner, 17 and incubated in a centrifuge tube for the same period of time without ultracentrifugation.
18 Both samples were kept at 21 °C during ultracentrifugation/incubation. For the AF4-MALS 19 experiments, a larger-than-usual injection volume of 200 µl was used to ensure the same mass […]
21 the elugram. For the ThT assays, the buﬀer was pre-adjusted to account for the increased […]
24 the integral of the UV signal after cross-ﬂow; in the control, the integrated HMW signal was […]
26 so the true mass is unknown), whereas in the centrifuged sample the integral was equivalent […]
Similarly, ultracentrifugation caused an approximately 4× reduction
28 in the integral of the LS 90o signal. Although the composition and degree of homogeneity of […]
30 that the majority of this material was removed. Despite removal of this material, the treated […]
One possibility is that the HMW fraction
However, the fact that the full expected 20 µg of
Instead, it may consist of small quantities of dust
36 or pre-existing contaminants in the vials, which were resistant to 50 mM NaOH but had no 37 observable seeding potential. […]
the self-assembly kinetics. Panels show (a) the UV280 signal, (b) the LS 90o signal, (c) the approximate Mw distribution, derived from MALS analysis of the ROI from 3.3-12.0 min using a linear Zimm ﬁtting approach, and (d) the corresponding ThT self-assembly kinetics […]
Color scheme: red, 1 mg/ml sample before dilution (not included in ThT assay); green, 10× diluted 0.1 mg/ml sample, incubated for 1 h before use in experiments; blue, 10× diluted 0.1 mg/ml sample, centrifuged at 436,000g for 1 h and then used in experiments.
(1 picture or pasted object on this page, not shown here)

[2] = fluorescence-based assays, cited from earlier work
Method: Aβ samples that are stored in a lyophilized form are often re-solubilized by treatment with a dilute base such as 1–10 mM NaOH or 0.02–1% NH4OH.[41],[46],[48],[53],[56],[57] These treatments would be expected to give a pH of 10.6–12.0, in the absence of any partial neutralization of the solvent. […] In addition, many st ...

[3] = 436,000g for 1 h against control

Aβ(1-42): Ultrapure recombinant Aβ(1-42) purchased from rPeptide, lyophilized from HFIP; disordered amyloid-forming peptide
integrated HMW UV signal after cross-flow, equivalent mass of Aβ(1-42) ([1]; 0.1 mg/ml in 5 mM NaOH, centrifuged at 436,000g for 1 h, 21 °C): 0.365 µg
reduction in the integral of the LS 90° signal by ultracentrifugation [1, 3]: approximately 4 ×
reduction in the integral of the UV signal after cross-flow by ultracentrifugation [1, 3]: approximately 3 ×
integrated HMW UV signal after cross-flow, equivalent mass of Aβ(1-42) ([1]; control: 10× diluted to 0.1 mg/ml in 5 mM NaOH, incubated 1 h at 21 °C without ultracentrifugation): 1.004 µg
pH threshold for complete elimination of self-assembly [2]: 11.0–12.0 pH
approximate timescale of limited aggregation ([2]; pH 11.0): several hundred seconds
